Numbering of substitutions follows the chain as printed.

One test has as its target T1, Kelch domain of Keap1.
T1 construct: Cloned into pET-28a in frame with an N-terminal His tag and a TEV protease cleavage site; stored in 20 mM Tris pH 7.5, 5 mM DTT; source: E. coli BL21 (DE3), purified (Ni-NTA, His tag cut off, Ni-NTA flow-through, Superdex 75, if necessary Mono Q); not shown: His tag, N-terminal, cleaved
T1 chain: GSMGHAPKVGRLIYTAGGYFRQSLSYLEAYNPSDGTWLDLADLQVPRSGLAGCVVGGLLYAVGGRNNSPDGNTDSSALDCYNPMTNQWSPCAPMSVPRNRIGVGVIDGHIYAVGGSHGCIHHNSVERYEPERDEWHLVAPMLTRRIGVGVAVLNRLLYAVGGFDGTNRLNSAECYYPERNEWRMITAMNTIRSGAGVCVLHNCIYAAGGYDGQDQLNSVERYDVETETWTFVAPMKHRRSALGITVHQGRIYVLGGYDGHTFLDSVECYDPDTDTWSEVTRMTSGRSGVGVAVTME
The test is described as follows: SPR; Biacore competition assay; concentration of LS146-scFv varied, percent inhibition fitted to a variable slope model; what was immobilised is not told. To be noted: both partners purified.

The target in test [1] is Keap1 (Homo sapiens).
In test [2] the target is T2, Keap1 (Homo sapiens).
T2 construct: Keap1, BTB-Kelch substrate adaptor protein; the crystallised construct is in PDB 5F72; source: recombinant, purified (procedures in Supplementary Methods)
The experiment in a line: not stated; potency of LS146-scFv against its Fab form (Supplementary Fig. S6).

B1: LS146-scFv (scFv)
scFv: EVQLVESGGGLVQPGGSLRLSCAASGFAISASSIHWVRQAPGKCLEWVASIDPETGETLYAKSVAGRFTISADTSKNTAYLQMNSLRAEDTAVYYCARAYAGDGVYYADVWGQGTLVTVSSGGGGSGGGGSGGGGSGGGGSDIQMTQSPSSLSASVGDRVTITCRASQSVSSAVAWYQQKPGKAPKLLIYSASSLYSGVPSRFSGSRSGTDFTLTISSLQPEDFATYYCQQSYSFPSTFGCGTKVEIKRT
notes: VH of LS146-scFv; (Gly4Ser)4 linker; VL of LS146-scFv; two residues between VL and the TEV site; also called scFv-LS146; source: CHO-S XE cells, transiently transfected, purified (HisTrap excel, His tag removed, HisTrap flow-through, Superdex 75); not shown: His10 (after a TEV protease cleavage site), C-terminal, cleaved
What is called IC50 is the concentration at which inhibition is half-maximal. Read a low IC50 as greater potency in that assay. B1: the half-maximal inhibitory concentration (IC50) in the test with Kelch domain of Keap1 came to 79 nM.

B2: G54 (antibody, V domains shown)
VH: EVQLVESGGGLVQPGGSLRLSCAASGFAISASSIHWVRQAPGKGLEWVASISPETGETYYADSVAGRFTISADTSKNTAYLQMNSLRAEDTAVYYCARQGYAARSGAGFDYWGQGTLVTVSS
VL: DIQMTQSPSSLSASVGDRVTITCRASQSVSSAVAWYQQKPGKAPKLLIYSASSLYSGVPSRFSGSRSGTDFTLTISSLQPEDFATYYCQQSYSFPSTFGQGTKVEIK
B2: the binding result with Keap1 [1] is given as “binds”.

B3: LS146-scFv (scFv, V domains shown)
VH: EVQLVESGGGLVQPGGSLRLSCAASGFAISASSIHWVRQAPGKCLEWVASIDPETGETLYAKSVAGRFTISADTSKNTAYLQMNSLRAEDTAVYYCARAYAGDGVYYADVWGQGTLVTVSS
VL: B2 VL with Q100C
notes: VH of LS146; (Gly4Ser)4 linker, written out; VL of LS146; The His10 tag is cleavable by TEV protease; also called LS146 formatted as a single chain Fv; crystal LS146-scFv; source: CHO-S XE cells; purification in Supplementary Methods
In the case of B3, in the test with Keap1 [2], the “fold lower potency than the Fab form (LS146 Fab)” value was determined as 3 fold.

B4: G55 (antibody, V domains shown)
VH: EVQLVESGGGLIRPGGSLRLSCKGSGFIFENFGFGWVRQGPGKGLEWVSGTNWNGGDSRYGDSVKGRFTISRDNSNNFVYLQMNSLRPEDTAIYYCARGTDYTIDETGERYQGSGTFWYFDVWGRGTLVTVSS
VL: EIVLTQSPDTLSLSPGERATLSCRASQSVHSRYFAWYQHKPGQPPRLLIYGGSTRATGIPNRFSAGGSGTQFTLTVNRLEAEDFAVYYCQQYGASPYTFGQGTKVEIR
B4: the binding result with Keap1 [1] was “binds”.

B5: G56 (antibody, V domains shown)
VH: B4 VH with Y111A
VL: EIVLTQSPATLSVSPGERATLSCRASQNVHPRYFAWYQQKRGQSPRLLIHSGSTRAAGIADRFSGGGSGMHFTLTITRVEPEDFAVYFCQQYGGSPYTFGQGTRVELR
Take B5: the binding result with Keap1 [1] is given as “binds”.
